Test results reported in the supplement of paper PMC10567573.

B1: ATL3 (parent)
chain: EKALASILLQDHIRDLDVVVVSVA
B2: INTS4 (parent)
chain: AKQIMEETYKMEFMYSGVENKQVV

Variants of: B1
Experiment: protein stability index of a GFP-peptide fusion (GPS, HEK-293T) (PSI 1-6); higher = more stable
Settings: c terminus: a fixed tail appended
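Also: lentivirally expressed fusions sorted by FACS into six bins by GFP to DsRed ratio, PSI derived from sequencing read proportions per bin multiplied by bin number.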

| Variant | protein stability index |
| --- | --- |
| EKALASILLQDHITDLDVVVVSVA [R14T] | 1.49 |
| EKALASILLQDHIWDLDVVVVSVA [R14W] | 3.58 |
| EKALASILLQDHIRILDVVVVSVA [D15I] | 2.33 |
| EKALASILLQDHIRVLDVVVVSVA [D15V] | 2.55 |
| EKALASILLQDHIRWLDVVVVSVA [D15W] | 2.5 |
| EKALASILLQDHIRDADVVVVSVA [L16A] | 1.31 |
| EKALASILLQDHIRDDDVVVVSVA [L16D] | 1.67 |
| EKALASILLQDHIRDKDVVVVSVA [L16K] | 1.23 |
| EKALASILLQDHIRDNDVVVVSVA [L16N] | 1.46 |
| EKALASILLQDHIRDPDVVVVSVA [L16P] | 1.57 |
| EKALASILLQDHIRDQDVVVVSVA [L16Q] | 1.37 |
| EKALASILLQDHIRDRDVVVVSVA [L16R] | 1.03 |
| EKALASILLQDHIRDSDVVVVSVA [L16S] | 2.37 |
| EKALASILLQDHIRDLAVVVVSVA [D17A] | 3.11 |
| EKALASILLQDHIRDLIVVVVSVA [D17I] | 1.36 |
| EKALASILLQDHIRDLMVVVVSVA [D17M] | 2.05 |
| EKALASILLQDHIRDLPVVVVSVA [D17P] | 2.93 |
| EKALASILLQDHIRDLQVVVVSVA [D17Q] | 1.93 |
| EKALASILLQDHIRDLYVVVVSVA [D17Y] | 3.45 |
| EKALASILLQDHIRDLDCVVVSVA [V18C] | 1.66 |
| EKALASILLQDHIRDLDDVVVSVA [V18D] | 2.74 |
| EKALASILLQDHIRDLDEVVVSVA [V18E] | 2.48 |
| EKALASILLQDHIRDLDHVVVSVA [V18H] | 1.06 |

| Variant | protein stability index |
| --- | --- |
| EKALASILLQDHIRDLDIVVVSVA [V18I] | 2.02 |
| EKALASILLQDHIRDLDKVVVSVA [V18K] | 2.27 |
| EKALASILLQDHIRDLDNVVVSVA [V18N] | 2 |
| EKALASILLQDHIRDLDPVVVSVA [V18P] | 2.34 |
| EKALASILLQDHIRDLDQVVVSVA [V18Q] | 1.59 |
| EKALASILLQDHIRDLDTVVVSVA [V18T] | 3.46 |
| EKALASILLQDHIRDLDYVVVSVA [V18Y] | 3.61 |
| EKALASILLQDHIRDLDVAVVSVA [V19A] | 1.64 |
| EKALASILLQDHIRDLDVCVVSVA [V19C] | 4.35 |
| EKALASILLQDHIRDLDVDVVSVA [V19D] | 3.81 |
| EKALASILLQDHIRDLDVGVVSVA [V19G] | 2.25 |
| EKALASILLQDHIRDLDVHVVSVA [V19H] | 2.29 |
| EKALASILLQDHIRDLDVKVVSVA [V19K] | 1.96 |
| EKALASILLQDHIRDLDVNVVSVA [V19N] | 1.72 |
| EKALASILLQDHIRDLDVPVVSVA [V19P] | 2.52 |
| EKALASILLQDHIRDLDVQVVSVA [V19Q] | 1.42 |
| EKALASILLQDHIRDLDVRVVSVA [V19R] | 2.19 |
| EKALASILLQDHIRDLDVSVVSVA [V19S] | 2.01 |
| EKALASILLQDHIRDLDVVAVSVA [V20A] | 1.58 |
| EKALASILLQDHIRDLDVVDVSVA [V20D] | 2.79 |
| EKALASILLQDHIRDLDVVEVSVA [V20E] | 2.89 |
| EKALASILLQDHIRDLDVVHVSVA [V20H] | 2.18 |
| EKALASILLQDHIRDLDVVKVSVA [V20K] | 2.79 |

| Variant | protein stability index |
| --- | --- |
| EKALASILLQDHIRDLDVVLVSVA [V20L] | 3.35 |
| EKALASILLQDHIRDLDVVMVSVA [V20M] | 1.82 |
| EKALASILLQDHIRDLDVVNVSVA [V20N] | 3.1 |
| EKALASILLQDHIRDLDVVPVSVA [V20P] | 3.2 |
| EKALASILLQDHIRDLDVVQVSVA [V20Q] | 2.1 |
| EKALASILLQDHIRDLDVVRVSVA [V20R] | 2.2 |
| EKALASILLQDHIRDLDVVTVSVA [V20T] | 1.89 |
| EKALASILLQDHIRDLDVVWVSVA [V20W] | 3.67 |
| EKALASILLQDHIRDLDVVYVSVA [V20Y] | 2.34 |
| EKALASILLQDHIRDLDVVVASVA [V21A] | 1.16 |
| EKALASILLQDHIRDLDVVVCSVA [V21C] | 2.07 |
| EKALASILLQDHIRDLDVVVDSVA [V21D] | 3.39 |
| EKALASILLQDHIRDLDVVVHSVA [V21H] | 1.51 |
| EKALASILLQDHIRDLDVVVISVA [V21I] | 2.63 |
| EKALASILLQDHIRDLDVVVNSVA [V21N] | 2.16 |
| EKALASILLQDHIRDLDVVVPSVA [V21P] | 2.56 |
| EKALASILLQDHIRDLDVVVQSVA [V21Q] | 2.6 |
| EKALASILLQDHIRDLDVVVRSVA [V21R] | 3.63 |
| EKALASILLQDHIRDLDVVVSSVA [V21S] | 1.81 |
| EKALASILLQDHIRDLDVVVTSVA [V21T] | 1.62 |
| EKALASILLQDHIRDLDVVVYSVA [V21Y] | 1.75 |
| EKALASILLQDHIRDLDVVVVDVA [S22D] | 2.35 |
| EKALASILLQDHIRDLDVVVVEVA [S22E] | 2.86 |

| Variant | protein stability index |
| --- | --- |
| EKALASILLQDHIRDLDVVVVGVA [S22G] | 1.07 |
| EKALASILLQDHIRDLDVVVVHVA [S22H] | 1.84 |
| EKALASILLQDHIRDLDVVVVLVA [S22L] | 2.02 |
| EKALASILLQDHIRDLDVVVVPVA [S22P] | 1.91 |
| EKALASILLQDHIRDLDVVVVRVA [S22R] | 2.97 |
| EKALASILLQDHIRDLDVVVVSAA [V23A] | 2.21 |
| EKALASILLQDHIRDLDVVVVSDA [V23D] | 3.01 |
| EKALASILLQDHIRDLDVVVVSFA [V23F] | 3.83 |
| EKALASILLQDHIRDLDVVVVSGA [V23G] | 3.31 |
| EKALASILLQDHIRDLDVVVVSHA [V23H] | 1.19 |
| EKALASILLQDHIRDLDVVVVSKA [V23K] | 2.38 |
| EKALASILLQDHIRDLDVVVVSLA [V23L] | 2.76 |
| EKALASILLQDHIRDLDVVVVSNA [V23N] | 2.32 |
| EKALASILLQDHIRDLDVVVVSPA [V23P] | 2.45 |
| EKALASILLQDHIRDLDVVVVSQA [V23Q] | 1.96 |
| EKALASILLQDHIRDLDVVVVSRA [V23R] | 1.41 |
| EKALASILLQDHIRDLDVVVVSSA [V23S] | 3.22 |
| EKALASILLQDHIRDLDVVVVSVC [A24C] | 4.82 |
| EKALASILLQDHIRDLDVVVVSVG [A24G] | 2.39 |
| EKALASILLQDHIRDLDVVVVSVM [A24M] | 1.8 |
| EKALASILLQDHIRDLDVVVVSVN [A24N] | 2.01 |
| EKALASILLQDHIRDLDVVVVSVP [A24P] | 2.53 |

Variants of: B2
Experiment: as above
Settings: c terminus: a fixed tail appended

| Variant | protein stability index |
| --- | --- |
| AKQIMEETYKMEFEYSGVENKQVV [M14E] | 2.54 |
| AKQIMEETYKMYFMYSGVENKQVV [E12Y] | 2.44 |
| AKQIMEETYKMEAMYSGVENKQVV [F13A] | 4.23 |
